How the values were obtained:
[1] = target: BS/07 H1 HA (recombinant ectodomain of hemagglutinin from A/Brisbane/59/2007, H1N1) (Influenza A virus A/Brisbane/59/2007 (H1N1))
[2] = target: hemagglutinin on BS/07 H1N1 virus (A/Brisbane/59/2007) (Influenza A virus A/Brisbane/59/2007 (H1N1)); test: cell-based or functional assay

Row | Substance | normalized binding affinity [1] | normalized neutralizing potency against BS/07 H1N1 [2] | IC50, neutralization of BS/07 H1N1 infection [2] [µg/mL]
1 | F10 scFv (phage-free soluble, E-tag) | 1 | 1 | 
2 | F10 IgG (antibody) |  |  | 1.85

— US20170044239A1
